Among the data in a protein production outcome set (Wang et al. 2014) are protein production values, retold here.

This data set in a line: label from the status in PepcDB records.

Turning to “MTEVDPRFEAWLSLETGIDAPSLGANALERAVLERARAMLAESSPRRPAVADAAALDAYWLRLNTWPEERQALIEALVVPETWFFRDREAFAELARLAGERLVREPARVLRILSVACSTGEEPYSAAMALLDAGIGPARFAIDAIDISGRAIDQAEHALYGRNAFRGYPLTFRDRYFSEVADGWQLNERVRRRVRFTQGNLFDETMDGEARYDFIFCRNALTYFHRDAQDHAIRRLDAQLADGGVIFVGPAETGPMMRHAMTPARSPLAFAFVRTPPAAKVPARAAPSQQQAPRPAVTGSPTVKPAAPEAASLAVRGGGAALPEHSAAVPVSLSTPLSVPPLRKVLPDLDDARQLTDAGRFDEAEYIIQDIVSLSAPEADTFYLLGVIAHARGRYADAGDFYRKTLYLDPEHYEALTHLAAVLDASGDAVGARQLMLRAQRAMARRDPAHPDAPNRPRGAPGLRRS”, the protein production entry is given as “failed”.
To “MTEVYDLEITTNATDFPMEKKYPAGMSLNDLKKKLELVVGTTVDSMRIQLFDGDDQLKGELTDGAKSLKDLGVRDGYRIHAVDVTGGNEDFKDESMVEKYEMSDDTYGKRTDSVRAWKKKMQEEQGSAAPMENESDKLNEEAAKNIMVGNRCEVTVGAQMARRGEVAYVGATKFKEGVWVGVKYDEPVGKNDGSVAGVRYFDCDPKYGGFVRPVDVKVGDFPELSIDEI” belongs “not failed”.
Regarding “MTFEIAFVLLSLLGMVIALILDKMRPGMILFSVVVLFLCAGILTPKEMLEGFSNKGMITVALLFLVSEGIRQSGALGQVVKKLLPQKRTTVFRAQLRLLPAVAFISAFLNNTPVVVIFAPIIKRWARTVHLPATKFLIPLSYVTILGGICTLIGTSTNLVVHGMILESGHEGFTMFELGKVGIFIAIAGIIYLFAFSKKLLPDARPDTAVPDEEVEEGDKLHRVEAVLGARFPGINKTLGEFNFKRHYGAEVKEIKKRNGQRFINNLEEVILREGDTLVVMADDTFIPTWGESSVFVLLANGNDNEPIPGKGKRWFALILLILMIAGATIGELPVVKEMFPDMKLDMFFFVSVTTIIMAWTKIFPARKYTKYISWDILITIACAFAISKAMVNSGVADKVAGFIIGMSHDYGPHVLLAVLFIITNLFTELITNNAAAALAFPLALSLSVQLGVDPTPFFVVICMAASASFSTPIGYQTNLIVQGIGNYKFMDFVRIGLPLNLITFLISIFLIPLIWPF”, the protein production result is listed as “failed”.
For “MTFEIVFVLLSLLGMMAALIADKMRPGMVLFSVVVLFLCVGILTPKEMLEGFSNKGMITVALLFLVSEGIRQSGTLGQVIKKLLPQGKTTVFKAQLRILPSVAFISAFLNNTPVVVIFAPIIKHWAKSVKLPATKFLIPLSYVTILGGICTLIGTSTNLVVHGMILEAGYEGFTMFELGKVGIFIAIAGIIYLFIFSKRLLPDARPDTAVPDEEVEEGEKLHRVEAVLGARFPGINKKLSDFNFQRHYGAEVKEIKTRNGQRYVDHLEDVVLREGDTLVVMADDTFIPTWGESSVFVLLTNGNDPDTSGKKKRWLALILLVLMIVGATVGELPATKEMFPDIKLDMFFFVCITTIIMAWTNIFPARKYTKYISWDILITIACAFAISKAMVNSGVADCVAGFIIGLSDDYGPHVLLAILFVITNLFTELITNNAAAALAFPLALSISAQLGVSPTPFFVVICMAASASFSTPIGYQTNLIVQGIGNYKFTDFVRIGLPLNIITFLISVILIPLIWNF”, the protein production entry was “not failed”.
To “MTFFTNYTNLALIAILLVSGGLLAWPALRRGRGGLSAAEATQLINRRNAVVIDLRAATDFAAGHLPSARQVAAGEIGAKIAQVAKNKSTPVLLVCQNGQQSQKAAREVQAAGYAEVHVLEGGVAAWQQAGMPVVKQGVAK” belongs “failed”; to “MTFKQVADDWLKQYANDVKVSSVRAREKAIQHAIERFNTKPIQTIKKHDYQRFVDDISAQYSKNYVDSIVASTNMIFKYAYDTRLIKAMPSEGIKRPKKKVSVELEHHHHHH”, “not failed”; to “MTFLSQLSTHADKAFLRRLFAIALPITLQSIMFSSRSLVDVLMLGQLGEAEIAAVGVAARATFVTTIMLVGVTTGGALLTAQYWGAGDKIGVRQSTSLTWMIAMVFAALAVCLFVFFPQPIMGLTTDSQEVIELGSSYLVISSASMFAVACVASMAVGLRAMHQPGLSTFFSGIGILSNVFLNWVLIFGHLGFPALGITGAAIATVISGAIEVGCLFGYLWLKKHIIAFGWGDIRASLVLDKITRFLSLSLPTTFNFLAWAGGLFAYHAIMGQAGVQGLAALSVMTPVESIALAMMIGLSNAAAVLVGNQLGAKNFEPVYYQAWATVILNVLIAFGVAVLLFFTNQLILDAFSALSAETRHLAEQFMVILALGVILRSVPMMVIVGVLRAGGDVKFCLYQDVFAQWIIGIPLAAFAAIYLGWEPQWVYLLFLTEEVVKWCICLPRMKSKKWMKNLIEK”, “not failed”.
To “MTFRESVPFIVAIAATIPGILLRVVHPDISPLLMASLTGLAILGASFMLMWACEVAQMDIPQTLALAVVALIAVLPEYAVDMYFTWMAGQHPESNYAHYAIANMTGANRLLIGIGWSAIAILYALRFRKAVQLEEERRSELLFLALATAYALVIPLKGTLEWYDGVILVSLYVWYIRIASKRPCTDCEVEGPAEALAHLPRNTRRLTTLGLFLFAAGVILCDAELFSESLVASGKVLGINEFLLVQWLAPIASEAPEFIVAIMFATRGQASLALGSLISSKLNQWTLLVGMIPGVFAVSSGSINPPMPMDDHQMHELLLTAAQSLFAVVLLARMRLGLRGALVLLALFIGQFAAPLYEPYVENLLGIPHMPDGLHIVYSGLYIALALGMMLYRPGRLLQLREGLKV” belongs “failed”.
In the case of “MTFRGPSPPRFGHSMDLPAYAIEAEGLYKTYAGTKTSPEKRALNGIDLKIPRGSIFGLLGPNGAGKSTFINILAGLVRKSSGTVRIWGRDIDQRPRDARAAIGVVPQELAADVFFTPRESLEVQAGFYGVPKSERRTDELLNALGLGDKAGAYVRQLSGGMKRRLMVAKAMVHQPPVLILDEPTAGVDVELRRQLWQYVTSLNELGVTIVLTTHYLEEAQELCDEIAIINRGEVVACEPTAKLLSRMDSRNVVVTPESPVTAAPVLEGFDTKLRSGGAFSVSYRTGQSSVEQVLAAVRASGLHIKDIATEDPDLEDVFVALTYGDPNAADPTKDLEHHHHHH” it was “failed”; in that of “MTFSSKLKSFCSRYFSSHEKDKYKALMKQKLLNPLSSSSPNYDEMIQENFKPHWIIGIDPNLSGALAVLKFDDKGSCSAQVNPY”, “failed”.
Regarding “MTFVLNTFGRLQLVDGQGSLVAFPEKGLLLLVYLLTTGEGSADRTSLARFLWGDADRDVALSTLRKLISRIKARQTELGINILSSQGNMVSLDRESLSSDLLLSETDEAVASFSLLKHLVKLLNQPFLGPVHCHSREFQHWLAEREKSHIDLLANTLKAVSQRAQSRTESELLRKAAIILFRTEPKDPDTLQLLIEIFKAEEEVESLRNHFEQRRISISRGIAVRTASDGGDTKPVLPALAPSREKHATAVSLEPEDISIAIPRLVLLPPRNQSIHPQAGFLAASLVEDITIGFCAFNSLQVIAPYSAVQIGHHMETQKAFFERHHVNYILDTRISNAGDDVTLFAQLIFFDQNQIVWAERFSLDHRDLVKDRRTVSRRIALSISSEIERHEALREDLNPAAYHRYLVGRRHLARLTLPNLRRARKEMKAALSVSPDFAPALSSMARTYSKEWLLTARGDIDLLKTAETLATQATETRPDFADGYREFGVAKLLQGAFDQSAEAMEVAESLAPHYADVIADYADTLVHCSLPAIALRKIERAIELNPLSPDTYFWTAAGANYALGEFEASLDYIGQMADASLADRLAAANWAMLGHQDKARTFVRRFREVNPDFDVDKWLSAVPSKEQWHKDLYREGLKKAGF”, the protein production entry is listed as “failed”.
To “MTGAETGSHFRRHALDAKPIGMSDHEQTKLIATAMNEGSPQAKALGFTTLEIGDAVALLKVPYRPEIIGDPETGVIAGGVVTTLLDHASGQAVHAAMETWTSIATLDLRIDYMRAAEPGLDVMARAHCYKLTRSVAFVRAVAYDRDPEDPIATGQATFMLDSSAGKKAGANLKPSRQQRSKTGGVDQ” belongs “failed”.
As to “MTGCSHRFYYSHMIQTSVRSFEVGEDLASMAVDERISLLRSRMQSISKSGDFSLDYNCKTADKNIIPLSDPLSHVLPWGGLPRGMIVESTITPLLAILFIAQVSGSGRRVGVVGWPDLNYAGVLGYGGCYERIFAVPQQERTSLRVVTALAHGCDLVITRAGPTPRTYTPLQTQRFRNSLRSDAGCVIMMGDHVVSPAARLASAVVGYHGIGKGTGRIKAVEITVTGIAKGFYRTSRVIVGKHIAPAAEKTTMKVVLEHHHHHH”, the protein production entry was “not failed”.
In the case of “MTGEGTNYLIVGSDSRAGMSAEEKKKLHTGSAEGKRTDSMMILHTGDNGSTLVSLPRDSDVEIPTFKGSTSGKTYPGTGRHVKLNAAYAEDGPELLVRTIEYNTGLHIDHYVEIGFAGFANIVDSVGGVEMTLDKGFKDTFSGADFKAGKQTLNGEQALAFVRTRHAFAASDLERTKNQQKFLSALAHQVATPSTVLNPFKLYPTLSSGLDTLIVDKDMGLFDLADMFWAMKGVTGGDGTSMNMPISGSSGGNLVWDKAKVKALVNELKNDEKVTVSGNLEHHHHHH” it was “not failed”; in that of “MTGEVPGAAAQVFARAEALRDLGRPAEALGLVRQGLASDPHDVTLLVLATTLSLALEDYAQAADFATQAAAQAPGWALPLALLAQARRLADDPAGGKQAAQAALHLDPDEALAHFEVGLATALEAEQAPLWHRRRLLTEARAAASRVEALWPGQADGPALQALIDIVAGHWPQHEANIARALEREPDDSFAHNVRLLGLQARHSGETVPQLYERLRSRPDDVFARSQCVPTFPSRAGCGSIGGAGGGFFHCWW”, “failed”.
In the case of “MTGGLLVTGGSGAIGGALCRIAARQHPVWVGYGAGAGRARALAAEITQAGGRAEPLALPLQDPAALETALAALPEPPASLALCAWPAPFVAPFGRQGEDLALQAAALAGCHALIATAWRLWWRRAGGGHVLAVLSAASEPPVARHMAAYVAQKAALRALLAAAAAELGPAGLRVSVVAPGFVETPMLGAFDPRLLERARADAGGRFLSPERVAQALVAALDAPPPAGTVQDIHLAEEVESDEKQTA” it was “failed”; in that of “MTGKEDEYEFEKTEKSSSLDEESTGSEVNEQKESYLDIINIIGSLMQDENYSLKNESILTINKILSFLNKEIYENKNFTEAWLIKGTVLYKTGKYNGAIDAFDGALESMSEKTSEEKLDTWIKSYGINYRYALKFKAFSLCKLGRYREALNALDEISAIYPEDPEIESHKNMLQTLENERLIRRTGNTQDQPPKHPGIWERRGKSSYKLGKYEEAVKEFDRCLESNPKDADILRNKGSALYMLGRYEEAIEAFNKSLELNPRDADAWNLKGSTLYMIGRPEEALRALDKALQRNPNIFEAWFNKGSILFELGKYKQALSAVENALRINAEDINALTLKTSILSGLKQDEK”, “failed”; in that of “MTGPDRVALLVLAALVLDWLLGDPRWLPHPVVAVGRLVTALERQLRRLVTNERAAGVILLVLTVGITGGTAWLLVLGAGLVHPVAGFAVEALLGWTCLAARSLHGESKLVADALAAGDLAEARFFLSRIVGRDTAELTEPEIWRGVVETVAENTSDGVIAPLFWFMIGGAPLALAYKAVNTLDSMVGYKNERYLHFGWASARFDDLVNLLPARITGLLMVLSAPLAGLSGPGAWRIMRRDGRNHSSPNAGIPEAAAAGALGVRLGGMNVYFGRPVAKPTIGDPLNPLDRTAWRGAVRLMYGSEILLTGFMLCYLFVLERP”, “failed”.
In the case of “MTGRLVLAATPMGDVGDASPRLRTALGTADVVAAEDTRRTKALASALDVTITGKVVSFYDQVETARLPALVADVASGKTVLLVTDAGMPSVSDPGYRLVSACVAEDLAVTCLPG” it was “failed”; in that of “MTGSVVVAGLGPGAQELITPEVSAALALATDIVGYAPYVARVAERDGLQRHASDNREELDRAGFALRLATEGRHVVIVSSGDPGVFAMAAALFEAIEAGDPSWRELDIRVLPGISAMFATAARIGAPLGHDFCAINLSDNLKPWETVEKRLRAAAEADFVIALYNPISKARPWQLGRAFELLRSIHPASVPVIFATAISDPRERIDVAPLGEAVPQRADMRTLVMIGSSQTRIIPRSSGADFVYTPRFSGAVS”, “failed”.
